Results reported in patent US20120282271.

Legend:
[1] = test system: pro-MSP-R483E (cleavage-site mutant of pro-MSP)
[2] = test system: pro-MSP (single-chain recombinant human pro-macrophage-stimulating protein, C672A)

Chain of extracellular domain of human recombinant hepsin (chain, as listed by the source): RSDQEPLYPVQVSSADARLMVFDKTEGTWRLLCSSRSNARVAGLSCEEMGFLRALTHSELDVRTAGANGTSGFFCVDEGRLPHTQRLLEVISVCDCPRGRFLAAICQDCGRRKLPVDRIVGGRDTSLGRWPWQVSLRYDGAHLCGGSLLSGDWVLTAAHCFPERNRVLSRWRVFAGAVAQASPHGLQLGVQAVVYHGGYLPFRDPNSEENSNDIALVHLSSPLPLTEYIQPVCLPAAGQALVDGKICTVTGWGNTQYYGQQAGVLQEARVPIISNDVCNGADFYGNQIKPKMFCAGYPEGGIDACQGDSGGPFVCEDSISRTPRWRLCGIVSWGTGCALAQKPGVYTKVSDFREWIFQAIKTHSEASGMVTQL
Chain of pro-MSP-R483E (cleavage-site mutant of pro-MSP) (chain, as listed by the source R483E): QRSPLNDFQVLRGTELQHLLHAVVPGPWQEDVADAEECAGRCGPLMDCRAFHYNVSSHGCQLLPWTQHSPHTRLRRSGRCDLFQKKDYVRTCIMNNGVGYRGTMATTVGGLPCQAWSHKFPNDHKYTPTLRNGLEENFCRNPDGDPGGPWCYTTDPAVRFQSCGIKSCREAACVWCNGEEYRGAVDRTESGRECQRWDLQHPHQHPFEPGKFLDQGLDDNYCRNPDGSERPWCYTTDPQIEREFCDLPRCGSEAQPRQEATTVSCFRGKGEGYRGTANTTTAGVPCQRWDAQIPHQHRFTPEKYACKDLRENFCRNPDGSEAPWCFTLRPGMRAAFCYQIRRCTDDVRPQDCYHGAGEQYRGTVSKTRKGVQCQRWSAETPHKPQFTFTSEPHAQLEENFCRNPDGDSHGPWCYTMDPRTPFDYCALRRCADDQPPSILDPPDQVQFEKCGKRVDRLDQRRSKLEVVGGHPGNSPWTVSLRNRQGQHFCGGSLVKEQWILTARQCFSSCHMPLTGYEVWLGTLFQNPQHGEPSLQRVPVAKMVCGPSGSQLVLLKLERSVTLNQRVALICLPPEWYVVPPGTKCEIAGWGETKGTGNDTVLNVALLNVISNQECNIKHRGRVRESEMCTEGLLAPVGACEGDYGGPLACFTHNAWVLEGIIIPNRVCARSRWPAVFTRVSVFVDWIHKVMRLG

For “extracellular domain of human recombinant hepsin”, the “proteolytic processing by hepsin, SDS-PAGE” value [1] was “Hepsin did not cleave this mutant pro-MSP despite prolonged incubation (24 hours)” and the “proteolytic activation of pro-MSP, gel-mobility shift on reducing SDS-PAGE (hepsin 1.25-10 nM, 37° C.)” value [2] was “Hepsin activated pro-MSP in a dose-dependent and time dependent manner”.
